In patent US11278600B2, “Human alpha-galactosidase variants” (Codexis, Inc., priority 2014, dated 2022):
Substitutions are numbered along the chain they refer to.

B1: 378 (protein)
chain: LDNGLARTPTMGWLHWERFMCNLDCQEEPDSCISEKLFMEMAETMVSEGWKDAGYEYLCIDDCWMAPQRDSEGRLQADPQRFPHGIRQLANYVHSKGLKLGIYADVGNKTCAGFPGSFGYYDIDAQTFADWGVDLLKFDGCYCDSLENLADGYKHMSLALNRTGRSIVYSCEWPLYMWPFQKPNYTEIRQYCNHWRNFADIDDSWKSIKSILDWTSRNQERIVDVAGPGGWNDPDMLVIGNFGLSWDQQVTQMALWAIMAAPLFMSNDLRHISPQAKALLQDKDVIAINQDPLGKQGYQLRKGDNFEVWERPLSGDAWAVAIINRQEIGGPRSYTIPVASLGKGVACNPACFITQLLPVKRQLGFYNWTSRLKSHINPTGTVLLQLENTMQMSLKDLL
modifications: Synthetic Polypeptide sequence of Variant No. 378 of mature Human GLA
B2: 381 (protein)
chain: B1 chain with T44R, Y92S
modifications: Synthetic Polypeptide sequence of Variant No. 381 of mature Human GLA
B3: 380 (protein)
chain: B1 chain with T44R, Y92K
modifications: Synthetic Polypeptide sequence of Variant No. 380 of mature Human GLA
B4: 382 (protein)
chain: B1 chain with T44R, H94N
modifications: Synthetic Polypeptide sequence of Variant No. 382 of mature Human GLA
B5: 383 (protein)
chain: B1 chain with T44R, Y92C
modifications: Synthetic Polypeptide sequence of Variant No. 383 of mature Human GLA
B6: 379 (protein)
chain: B1 chain with T44R, S47T
modifications: Synthetic Polypeptide sequence of Variant No. 379 of mature Human GLA

Columns and labels:
Format in all cases: biochemical
[1] = HTP-analysis of supernatants pretreated with base (MUGal hydrolysis); conditions: activity of the variant/activity of Rd4BB (SEQ ID NO: 15); challenge at pH 9.65
Method in brief: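 GLA variants secreted from yeast INVSc1; culture supernatants pre-incubated with McIlvaine buffer pH 7.0–8.2 or 200 mM bicarbonate pH 9.1–9.7 at 37° C. for 1–18 h. Residual activity: MUGal (4 mM stock) hydrolysis at pH 4.3–4.8, 37° C., 30–180 min, carbonate quench; fluorescence Ex 355/Em 448 nm.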

[2] = HTP-analysis of yeast culture supernatants, no challenge (MUGal hydrolysis); conditions: activity of the variant/activity of Rd4BB (SEQ ID NO: 15)
Method in brief: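 GLA variants expressed in yeast INVSc1, secreted into SD-Ura broth over 66-84 h at 30° C; clarified supernatants tested without challenge. Supernatant mixed with McIlvaine buffer pH 4.8 and 2 mM MUGal (citrate/KCl, pH 4.6), 37° C for 30-180 min, carbonate-quenched, fluorescence Ex 355/Em 448 nm.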

[3] = HTP-analysis of supernatants pretreated with acid (MUGal hydrolysis); conditions: activity of the variant/activity of Rd4BB (SEQ ID NO: 15); challenge at pH 3.7
Method in brief: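 Supernatants from INVSc1 yeast secreting GLA variants were challenged at 37° C. for 1-3 h in McIlvaine buffer at pH 3.3-4.3. Residual activity was then measured on 4 mM MUGal substrate stock at pH 4.8 with citrate buffer pH 4.3, over 30-180 min at 37° C. Reactions were quenched with sodium carbonate and read by fluorescence (Ex 355/Em 448 nm).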

Molecule | Relative Activity of GLA Variants After Challenge at pH 9.65 [1] | Relative Activity of GLA Variants After No Challenge (NC) [2] | Relative Activity of GLA Variants After Challenge at pH 3.7 [3]
B1 | + (0.5 to 1.5 relative activity over Rd4BB (SEQ ID NO: 15)) | + (0.5 to 1.5 relative activity over Rd4BB (SEQ ID NO: 15)) | − (<0.5 relative activity over Rd4BB (SEQ ID NO: 15))
B2 | − (<0.5 relative activity over Rd4BB (SEQ ID NO: 15)) | + (0.5 to 1.5 relative activity over Rd4BB (SEQ ID NO: 15)) | + (0.5 to 1.5 relative activity over Rd4BB (SEQ ID NO: 15))
B3 | − (<0.5 relative activity over Rd4BB (SEQ ID NO: 15)) | + (0.5 to 1.5 relative activity over Rd4BB (SEQ ID NO: 15)) | + (0.5 to 1.5 relative activity over Rd4BB (SEQ ID NO: 15))
B4 | − (<0.5 relative activity over Rd4BB (SEQ ID NO: 15)) | − (<0.5 relative activity over Rd4BB (SEQ ID NO: 15)) | − (<0.5 relative activity over Rd4BB (SEQ ID NO: 15))
B5 | − (<0.5 relative activity over Rd4BB (SEQ ID NO: 15)) | + (0.5 to 1.5 relative activity over Rd4BB (SEQ ID NO: 15)) | − (<0.5 relative activity over Rd4BB (SEQ ID NO: 15))
B6 | + (0.5 to 1.5 relative activity over Rd4BB (SEQ ID NO: 15)) | + (0.5 to 1.5 relative activity over Rd4BB (SEQ ID NO: 15)) | ++ (>1.5 to 2.5 relative activity over Rd4BB (SEQ ID NO: 15))
